From the supplement of paper PMC10567573

B1: NETO1 (parent)
chain: GFSPIIGRFCGQQNPPVIKSSGRF
B2: TRAF3IP2 (parent)
chain: APWNYHYHCPGSPDHQVPYGHDYP

Variants of: B1
Assay: protein stability index of a GFP-peptide fusion (GPS, HEK-293T) (PSI 1-6); higher = more stable
Conditions: c terminus: a fixed tail appended
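Note: lentivirally expressed fusions sorted by FACS into six bins by GFP to DsRed ratio, PSI derived from sequencing read proportions per bin multiplied by bin number.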

Protein stability index of substitutions, site by site:
S21: D 1.82, T 2.36, I 1.57, C 2.42, H 2.06, R 2.26, W 1.8
P16: N 1.73, I 1.86, L 1.59, M 2.16, Q 1.69, V 2.26, G 1.85, R 2.32
I18: F 1.95, W 2.1, A 2.7, Q 2.78, K 2.72
F24: P 2.51, H 2.26, L 3.69, C 2.48, R 2.66, G 3.51, Y 2.4, T 2.65
K19: N 1.65, T 1.94, S 2.48, E 2.27, I 2.07, D 2.26, L 2.3
I6: K 3.17, T 2.39, F 2.16, Y 1.91, S 2.94, C 2.11, V 2.15, D 3.54, W 2.68
G11: W 2.26, V 2.36, P 2.58
G7: N 2.38, P 1.65, H 1.74, M 1.56, Y 1.64, K 1.89, T 2.47
P4: Y 2.44, E 2.33, K 2.59, M 2.36, R 1.82, W 1.91
C10: Y 2.42, P 3.47, W 2.3
Q12: C 2.32, S 2.03, W 1.72
N14: D 2.48, T 1.67, L 1.66, Y 1.99, M 1.8
G22: Y 2.1, P 2.15, H 1.59
I5: K 2.75, N 2.34, E 3.22, V 1.87, L 2.17, F 1.79
F2: E 3.09, K 2.28, G 2.54, S 2.75, Y 2.02, W 1.52, H 2.15
F9: D 3.31, Y 1.98, G 1.97, I 2.45, P 1.95, Q 2.38
R8: H 1.79, M 1.76, T 2.18, S 2.05
Q13: I 2.17, M 2.3, H 1.88, C 1.42
P15: A 2.44, V 2.14, T 2.04, L 2.59, E 2.27
V17: G 2.62, H 2.08, R 2.23, A 2.04, I 2.51, Q 2.52
R23: K 2.44, H 1.76, T 1.64
S20: W 1.99, T 1.88
S3: A 2.6, F 2.56, G 2.2, Y 1.53, P 1.75, H 2.03, R 2.04

Variants of: B2
Assay: as above
Conditions: c terminus: a fixed tail appended

Protein stability index, by site and new letter:
H15: S 2.22, F 1.65, I 2.61, W 1.46, Q 2.13, Y 2.14, P 2.23, G 2.73, E 2.43, R 2.1, L 1.95, V 2.31, D 2.56, M 2.02, C 1.97, A 2.1, T 1.91, K 2.65, N 2.48
P13: W 1.67, Y 1.63, T 2.24
Q16: Y 2.09, H 2.97, G 1.81, V 2.09, N 2.54, E 2.6, M 1.94, T 2.31, D 2.49, P 2, K 2.15, L 1.89, A 2.64, S 3.2, F 2.19, C 2.07, W 1.68, I 2.58, R 2.02
D14: C 2.49, W 2.32, A 1.93, Y 1.53, K 2, F 2.75, L 2.6, T 1.78, N 2.11, Q 2.46, G 2.1, V 2.09, H 2.25, S 2.26, E 2.72, M 1.84, I 2.08, R 1.91
V17: A 2.06, D 2.62, M 1.88, L 2.81, H 2.71, G 2.68, Q 2.61, C 2.45, P 2.6, F 1.73, K 2.53, E 2.95, S 2.31, T 2.39, I 2.15, W 2.08, N 2.23, R 2.4, Y 1.81
Y23: C 1.91, P 3.06, T 2.89, W 1.68, S 2.85, G 2.92, F 2, E 3.61, I 2.3, L 2.27, A 2.85, D 3.83, Q 2.92, N 2.08, H 1.88, V 1.97, R 2.9, M 2.25, K 3.12
P24: T 2.63, I 1.72, A 2.51, C 2.02, V 1.96, W 1.94, N 2.93, F 2.01, M 1.66, L 1.96, R 2.73, E 4.07, D 3.88, Q 2.28, H 3.02, S 2.21, G 1.62, Y 1.86, K 2.8
Y19: H 2.85, E 2.8, D 2.75, Q 3.09, V 2.7, A 2.47, M 2.23, I 2.66, P 2.51, W 1.82, F 1.87, T 2.85, K 2.51, L 2.46, C 1.91, N 2.48, R 1.99, S 2.44, G 2.41
P18: N 2.5, S 1.67, A 3.19, G 1.92, L 2.21, E 2.54, Q 2.54, D 2.44, W 1.71, I 1.93, Y 2.16, V 2.05, K 3.59, F 2.23, M 2.56, R 2, H 2.17, C 2.97, T 2.37
D22: M 1.95, A 1.72, G 2.41, N 1.36, Y 2.08, P 2.68, L 1.9, V 1.6, R 2.18, S 2.33, F 1.55, T 2.42, I 1.16, E 2.36, Q 2.16, K 2.73, W 2.16, C 1.41
G20: I 2.74, P 2.26, H 2.35, W 1.4, V 2.13, K 2.65, Y 2.15, S 2.28, Q 2.19, M 1.93, C 2.42, L 1.74, T 2.66, E 2.48, D 2.95, A 2.58, N 2.44, F 1.52, R 2.45
H21: C 1.6, S 2.05, E 2.55, W 2.69, R 2.4, L 1.52, T 2.03, A 2.22, V 1.54, I 1.74, D 2.79, F 1.56, K 2.48, Q 2.17, Y 2.35, M 1.67, N 2.39, P 2.48, G 1.91
